According to patent US20240091374A1 (AbbVie / Abbott, published 2024):

Target: T1, Seizure-related homolog 6 (SEZ6) (UniProt Q53EL9 20-994, limits assumed)
T1 sequence (looked up): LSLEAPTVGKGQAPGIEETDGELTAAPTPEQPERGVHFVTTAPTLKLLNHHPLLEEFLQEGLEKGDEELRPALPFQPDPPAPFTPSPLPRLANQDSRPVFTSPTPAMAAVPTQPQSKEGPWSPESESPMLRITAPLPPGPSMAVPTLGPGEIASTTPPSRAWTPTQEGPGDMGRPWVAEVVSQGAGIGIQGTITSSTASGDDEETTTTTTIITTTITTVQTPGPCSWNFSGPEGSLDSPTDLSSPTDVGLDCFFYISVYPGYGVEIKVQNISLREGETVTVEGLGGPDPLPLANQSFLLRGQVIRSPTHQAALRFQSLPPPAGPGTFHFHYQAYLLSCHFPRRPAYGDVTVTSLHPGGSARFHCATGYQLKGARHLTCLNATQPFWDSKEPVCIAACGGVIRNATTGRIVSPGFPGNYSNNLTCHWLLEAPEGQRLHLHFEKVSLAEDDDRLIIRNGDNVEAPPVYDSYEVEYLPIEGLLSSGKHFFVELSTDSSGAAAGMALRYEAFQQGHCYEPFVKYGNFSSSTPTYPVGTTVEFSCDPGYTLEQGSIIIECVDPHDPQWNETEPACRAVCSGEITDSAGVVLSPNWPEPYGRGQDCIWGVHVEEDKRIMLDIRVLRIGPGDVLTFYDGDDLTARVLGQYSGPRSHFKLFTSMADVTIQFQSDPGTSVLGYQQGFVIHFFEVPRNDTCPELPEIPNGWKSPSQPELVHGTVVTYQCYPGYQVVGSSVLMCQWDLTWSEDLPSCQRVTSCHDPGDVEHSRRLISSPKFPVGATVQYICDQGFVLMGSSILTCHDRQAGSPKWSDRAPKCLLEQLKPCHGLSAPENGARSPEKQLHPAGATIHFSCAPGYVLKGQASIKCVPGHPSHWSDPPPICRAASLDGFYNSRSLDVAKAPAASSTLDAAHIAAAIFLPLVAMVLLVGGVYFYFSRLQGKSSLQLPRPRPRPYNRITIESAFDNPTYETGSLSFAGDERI
Test: cell-based or functional assay

B1: ADC-1 (anti-SEZ6 antibody Ab conjugated to TOP1i linker drug LD1, formula (IV), DAR about 6) (antibody, V domains shown)
VH: EVQLVQSGAEVKKPGESLKISCKGSGYSFTSSWINWVRQMPGKGLEWMGRIYPGEGDTNYNGNFEGQVTISADKSISTAYLQWSSLKASDTAMYYCTRGLVMDYWGQGTLVTVSS
VL: EIVLTQSPATLSLSPGERATLSCRASQSVDYNGISYMHWYQQKPGQAPRLLIYAASNVQSGIPARFSGSGSGTDFTLTISSLEPEDFAVYYCQQSIEDPPTFGGGTKVEIKR
modifications: linker drug LD1 (Example 1J, formula (III)) on sulfhydryl groups of cysteine residues after global reduction; positions not given; linker drug LD1 (Example 1J, formula (III)) on sulfhydryl groups of cysteine residues after global reduction; DAR of about 6 over the whole antibody, predominant species n = 6; positions not given
  growth inhibitory IC50, CellTiter-Glo cell viability, 10 days, COR-L95 cells (SEZ6 mRNA positive): 0.33 nM
  growth inhibitory IC50, CellTiter-Glo cell viability, 10 days, NCI-H146 cells (SEZ6 mRNA positive): 0.05 nM
  growth inhibitory IC50, CellTiter-Glo cell viability, 10 days, NCI-H524 cells (SEZ6 mRNA positive): 0.33 nM
  growth inhibitory IC50, CellTiter-Glo cell viability, 10 days, NCI-H526 cells (SEZ6 mRNA positive): 0.1 nM
  growth inhibitory IC50, CellTiter-Glo cell viability, 10 days, NCI-H1963 cells (SEZ6 mRNA positive): 4.63 nM
  growth inhibitory IC50, CellTiter-Glo cell viability, 10 days, row without a cell line label below COR-L95 (taken as a second COR-L95 value): 0.29 nM
